Source: paper PMC12416549 (2024)
Residue numbers refer to the chain shown, from its start. In names and notes the source's numbering stands.

T1: TNFR1 (Homo sapiens, UniProt P19438)
T1 chain: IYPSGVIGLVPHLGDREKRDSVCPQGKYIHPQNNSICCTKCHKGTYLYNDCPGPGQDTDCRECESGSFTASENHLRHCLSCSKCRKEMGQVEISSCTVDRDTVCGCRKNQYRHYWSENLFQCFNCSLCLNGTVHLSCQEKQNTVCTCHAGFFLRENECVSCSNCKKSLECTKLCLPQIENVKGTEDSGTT

B1: E101V (designed binder)
chain: MTLQELLREEALRRAEAEAFRYALELLAEKFPEQKEYLLDLAEEIESQIRSLSGVDVEDVRKFLDKEWAWVKELLAEHPAELAEVEAARAARLAELRAEVVAKVAA
B2: L64C (designed binder)
chain: B1 chain with L64C, V101E
B3: V100F (designed binder)
chain: B1 chain with V100F, V101E
B4: V55W (designed binder)
chain: B1 chain with V55W, V101E
B5: A69G (designed binder)
chain: B1 chain with A69G, V101E
B6: F31W (designed binder)
chain: B1 chain with F31W, V101E
B7: A90Y (designed binder)
chain: B1 chain with A90Y, V101E
B8: A76G (designed binder)
chain: B1 chain with A76G, V101E
B9: E29M (designed binder)
chain: B1 chain with E29M, V101E
B10: A102R (designed binder)
chain: B1 chain with V101E, A102R
B11: A91E (designed binder)
chain: B1 chain with A91E, V101E
B12: W70I (designed binder)
chain: B1 chain with W70I, V101E
B13: E10D (designed binder)
chain: B1 chain with E10D, V101E
B14: A80D (designed binder)
chain: B1 chain with A80D, V101E
B15: R14W (designed binder)
chain: B1 chain with R14W, V101E
B16: A15P (designed binder)
chain: B1 chain with A15P, V101E
B17: A83L (designed binder)
chain: B1 chain with A83L, V101E
B18: T2E (designed binder)
chain: B1 chain with T2E, V101E
B19: A42D (designed binder)
chain: B1 chain with A42D, V101E
B20: E46W (designed binder)
chain: B1 chain with E46W, V101E
B21: L96H (designed binder)
chain: B1 chain with L96H, V101E
B22: A28M (designed binder)
chain: B1 chain with A28M, V101E
B23: A76L (designed binder)
chain: B1 chain with A76L, V101E
B24: E33S (designed binder)
chain: B1 chain with E33S, V101E
B25: F31C (designed binder)
chain: B1 chain with F31C, V101E
B26: K72Y (designed binder)
chain: B1 chain with K72Y, V101E
B27: Y22W (designed binder)
chain: B1 chain with Y22W, V101E
B28: L96T (designed binder)
chain: B1 chain with L96T, V101E
B29: M1V (designed binder)
chain: B1 chain with M1V, V101E
B30: E18I (designed binder)
chain: B1 chain with E18I, V101E
B31: A17D (designed binder)
chain: B1 chain with A17D, V101E
B32: T2R (designed binder)
chain: B1 chain with T2R, V101E
B33: A11T (designed binder)
chain: B1 chain with A11T, V101E
B34: E101T (designed binder)
chain: B1 chain with V101T
B35: A80C (designed binder)
chain: B1 chain with A80C, V101E
B36: A19N (designed binder)
chain: B1 chain with A19N, V101E
B37: V100N (designed binder)
chain: B1 chain with V100N, V101E
B38: A88L (designed binder)
chain: B1 chain with A88L, V101E
B39: F31T (designed binder)
chain: B1 chain with F31T, V101E
B40: E81N (designed binder)
chain: B1 chain with E81N, V101E

Target: T1, TNFR1
Assay: yeast display SC50
For B1, the “apparent Kd (screen)” value was 0.539 nM. B2 was tested, and the “apparent Kd (screen)” value was 2.48 nM. With B3 the “apparent Kd (screen)” value was 0.49 nM. For B4, the “apparent Kd (screen)” value was 1.16 nM. B5 was tested, and the “apparent Kd (screen)” value was 0.653 nM. For B6, the “apparent Kd (screen)” value was 1.16 nM. In the case of B7, the “apparent Kd (screen)” value is reported as 0.718 nM. In the case of B8, the “apparent Kd (screen)” value is reported as 0.49 nM. In the case of B9, the “apparent Kd (screen)” value is reported as 0.539 nM. In the case of B10, the “apparent Kd (screen)” value is reported as 0.446 nM. In the case of B11, the “apparent Kd (screen)” value is reported as 0.593 nM. With B12 the “apparent Kd (screen)” value was 13.8 nM. For B13, the “apparent Kd (screen)” value was 0.539 nM. With B14 the “apparent Kd (screen)” value was 0.49 nM. With B15 the “apparent Kd (screen)” value was 0.539 nM. For B16, the “apparent Kd (screen)” value was 2.73 nM. With B17 the “apparent Kd (screen)” value was 0.446 nM. For B18, the “apparent Kd (screen)” value was 2.73 nM. B19 was tested, and the “apparent Kd (screen)” value was 1.86 nM. With B20 the “apparent Kd (screen)” value was 0.368 nM. For B21, the “apparent Kd (screen)” value was 0.49 nM. B22 was tested, and the “apparent Kd (screen)” value was 9.41 nM. In the case of B23, the “apparent Kd (screen)” value is reported as 0.49 nM. With B24 the “apparent Kd (screen)” value was 0.49 nM. In the case of B25, the “apparent Kd (screen)” value is reported as 0.653 nM. B26 was tested, and the “apparent Kd (screen)” value was 0.593 nM. For B27, the “apparent Kd (screen)” value was 0.49 nM. With B28 the “apparent Kd (screen)” value was 0.49 nM. For B29, the “apparent Kd (screen)” value was 0.539 nM. For B30, the “apparent Kd (screen)” value was 0.539 nM. With B31 the “apparent Kd (screen)” value was 0.79 nM. With B32 the “apparent Kd (screen)” value was 0.956 nM. For B33, the “apparent Kd (screen)” value was 0.593 nM. In the case of B34, the “apparent Kd (screen)” value is reported as 1.05 nM. For B35, the “apparent Kd (screen)” value was 0.49 nM. In the case of B36, the “apparent Kd (screen)” value is reported as 0.446 nM. With B37 the “apparent Kd (screen)” value was 0.593 nM. In the case of B38, the “apparent Kd (screen)” value is reported as 0.49 nM. In the case of B39, the “apparent Kd (screen)” value is reported as 0.593 nM. With B40 the “apparent Kd (screen)” value was 0.539 nM.
